The Kd is a measure of binding affinity in units of concentration. Read a high Kd as weaker binding. What is called koff is the rate constant with which the complex falls apart. Higher therefore signals fast dissociation. As usually defined, the kon is a measure of how fast the partners come together. High values mean faster complex formation, low ones slower complex formation.

The target in assay [1] is T1, TGFβ1 (human, UniProt P01137 279-390). The assay is described as follows: cell-based or functional assay.
T1 sequence (P01137 279-390 limits assumed): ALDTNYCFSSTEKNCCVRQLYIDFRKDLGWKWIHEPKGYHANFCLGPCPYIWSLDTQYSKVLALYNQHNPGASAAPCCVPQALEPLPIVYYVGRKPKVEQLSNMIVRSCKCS
For assay [2], the target named is T2, TGFβ2 (human, UniProt P61812 303-414).
T2 sequence (looked up): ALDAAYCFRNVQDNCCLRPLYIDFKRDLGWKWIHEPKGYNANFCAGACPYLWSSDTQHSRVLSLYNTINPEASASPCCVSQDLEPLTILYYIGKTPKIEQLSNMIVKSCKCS
The assay is described as follows: cell-based or functional assay.

Assay [3] concerns the target T3, TGFβ3 (human, UniProt P10600 301-412).
T3 sequence (looked up): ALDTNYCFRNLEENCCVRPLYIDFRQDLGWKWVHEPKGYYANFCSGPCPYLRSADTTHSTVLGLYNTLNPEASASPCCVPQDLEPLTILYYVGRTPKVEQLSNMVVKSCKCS
Briefly: cell-based or functional assay.

The target in a further assay is T4, BMP10 (UniProt O95393 317-424).
T4 sequence (looked up): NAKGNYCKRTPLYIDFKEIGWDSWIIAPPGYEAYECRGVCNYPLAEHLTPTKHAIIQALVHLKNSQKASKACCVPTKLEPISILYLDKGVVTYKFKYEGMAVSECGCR
The assay is described as follows: Biacore SPR. In general terms: In SPR one partner is held on a chip, and binding of the other changes the refractive index at the surface.

The target in the next assay is T5, BMP9 (UniProt Q9UK05 320-429).
T5 construct: also called GDF2
T5 sequence (looked up): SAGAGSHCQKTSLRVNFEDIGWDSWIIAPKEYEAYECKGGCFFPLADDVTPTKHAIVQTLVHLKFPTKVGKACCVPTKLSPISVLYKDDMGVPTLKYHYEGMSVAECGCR
Briefly: Biacore SPR.

The target in assay [4] is T1, TGFβ1. Briefly: Biacore SPR; * low signal. How it is done: (§1) The heteromeric or homomeric protein complexes were independently captured onto the system using an anti-Fc antibody. Ligands were injected and allowed to flow over the captured receptor protein.
The target in assay [5] is T2, TGFβ2. Briefly: Biacore SPR; * low signal. As for the experimental part:
as §1

Assay [6] concerns the target T3, TGFβ3. The assay is described as follows: Biacore SPR; * low signal. How it is done: as §1
Assay [7] has as its target T2, TGFβ2. The assay is described as follows: Biacore SPR.

B1: TGFβRIISHORT-Fc:ALK5-Fc heterodimer (Fc fusion)
chain 1: TIPPHVQKSVNNDMIVTDNNGAVKFPQLCKFCDVRFSTCDNQKSCMSNCSITSICEKPQEVCVAVWRKNDENITLETVCHDPKLPYHDFILEDAASPKCIMKEKKKPGETFFMCSCSSDECNDNIIFSEEYNTSNPDTGGGTHTCPPCPAPELLGGPSVFLFPPKPKDTLMISRTPEVTCVVVDVSHEDPEVKFNWYVDGVEVHNAKTKPREEQYNSTYRVVSVLTVLHQDWLNGKEYKCKVSNKALPAPIEKTISKAKGQPREPQVYTLPPSRKEMTKNQVSLTCLVKGFYPSDIAVEWESNGQPENNYKTTPPVLKSDGSFFLYSKLTVDKSRWQQGNVFSCSVMHEALHNHYTQKSLSLSPGK
chain 2: ALLPGATALQCFCHLCTKDNFTCVTDGLCFVSVTETTDKVIHNSMCIAEIDLIPRDRPFVCAPSSKTGSVTTTYCCNQDHCNKIELPTTVKSSPGLGPVETGGGTHTCPPCPAPELLGGPSVFLFPPKPKDTLMISRTPEVTCVVVDVSHEDPEVKFNWYVDGVEVHNAKTKPREEQYNSTYRVVSVLTVLHQDWLNGKEYKCKVSNKALPAPIEKTISKAKGQPREPQVYTLPPSREEMTKNQVSLTCLVKGFYPSDIAVEWESNGQPENNYDTTPPVLDSDGSFFLYSDLTVDKSRWQQGNVFSCSVMHEALHNHYTQKSLSLSPG
notes: also called TGFβRIISHORT:ALK5-Fc Heterodimer; TGFβRII-Fc:ALK5-Fc heterodimer (short isoform)
In the case of B1, the “IC50 (pM), CAGA12-luciferase reporter gene assay in A549 cells, TGFβ1 at 640 pg/mL” value with TGFβ1 [1] was < 350 pM. For the same molecule, the “IC50 (pM), CAGA12-luciferase reporter gene assay in A549 cells, TGFβ2 at 480 pg/mL” value with TGFβ2 [2] was ~200 pM. Further, the “IC50 (pM), CAGA12-luciferase reporter gene assay in A549 cells, TGFβ3 at 270 pg/mL” value with TGFβ3 [3] was < 90 pM. Also, the binding result with BMP10 and with BMP9 was “no binding” in each case. The Kd with TGFβ1 [4] was determined as 12 pM; with TGFβ2 [5] it was 0.4 pM; with TGFβ3 [6] it was 38 pM. For the same molecule, the koff stood at 0.0017 s⁻¹ in the assay with TGFβ1 [4], 2.9e-06 s⁻¹ in the assay with TGFβ2 [5] and 0.001 s⁻¹ in the assay with TGFβ3 [6]. In addition, the results for the on-rate constant (kon) in the assay with TGFβ1 [4], with TGFβ2 [5] and in the assay with TGFβ3 [6] were 1.4e+08 M⁻¹ s⁻¹, 6.6e+06 M⁻¹ s⁻¹ and 2.7e+07 M⁻¹ s⁻¹, respectively.

B2: TGFβRIILONG-Fc:ALK5-Fc heterodimer (Fc fusion)
chain 1: TIPPHVQKSDVEMEAQKDEIICPSCNRTAHPLRHINNDMIVTDNNGAVKFPQLCKFCDVRFSTCDNQKSCMSNCSITSICEKPQEVCVAVWRKNDENITLETVCHDPKLPYHDFILEDAASPKCIMKEKKKPGETFFMCSCSSDECNDNIIFSEEYNTSNPDTGGGTHTCPPCPAPELLGGPSVFLFPPKPKDTLMISRTPEVTCVVVDVSHEDPEVKFNWYVDGVEVHNAKTKPREEQYNSTYRVVSVLTVLHQDWLNGKEYKCKVSNKALPAPIEKTISKAKGQPREPQVYTLPPSRKEMTKNQVSLTCLVKGFYPSDIAVEWESNGQPENNYKTTPPVLKSDGSFFLYSKLTVDKSRWQQGNVFSCSVMHEALHNHYTQKSLSLSPGK
chain 2: B1 chain 2
notes: also called TGFβRII-Fc:ALK5-Fc heterodimer (long isoform)
In the case of B2, in the assay with TGFβ1 [1], the “IC50 (pM), CAGA12-luciferase reporter gene assay in A549 cells, TGFβ1 at 640 pg/mL” value is 204 pM. In addition, in the assay with TGFβ2 [2], the “IC50 (pM), CAGA12-luciferase reporter gene assay in A549 cells, TGFβ2 at 480 pg/mL” value is 154 pM. For the same molecule, the “IC50 (pM), CAGA12-luciferase reporter gene assay in A549 cells, TGFβ3 at 270 pg/mL” value in the assay with TGFβ3 [3] turned out to be 35 pM. Further, the binding result with BMP10 and in the assay with BMP9 was “no binding” each time. Moreover, the “affinity ratio against TGFβRII-Fc homodimer” value with TGFβ2 [7] is ~100000 fold. Also, in the assay with TGFβ2 [7], the “off-rate ratio against TGFβRII-Fc homodimer” value was ~10000 fold. The Kd in the assay with TGFβ1 [4] is 14 pM; in the assay with TGFβ2 [5], 0.07 pM; with TGFβ3 [6] it was 38 pM. Also, the dissociation rate constant (koff) with TGFβ1 [4] was found to be 0.00092 s⁻¹; with TGFβ2 [5], 2.8e-07 s⁻¹; in the assay with TGFβ3 [6], 0.001 s⁻¹. Further, the on-rate constant (kon) with TGFβ1 [4] worked out at 6.6e+07 M⁻¹ s⁻¹; in the assay with TGFβ2 [5] it was 4.2e+06 M⁻¹ s⁻¹; with TGFβ3 [6], 2.7e+07 M⁻¹ s⁻¹.

The values are drawn from patent US20190225669A1 (ACCELERON PHARMA, published 2019).
